# Test: yeast display, Sf9 membrane polyspecificity reagent, FACS + sequencing; frameworks hold sequencing errors
# Procedure, shortened: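 A nanobody's polyreactivity label depends on the gate it was sorted from. Yeast display cells were stained with 10% biotinylated, detergent-solubilized Sf9 membrane reagent for 1 hour at 4 °C, enriched on streptavidin microbeads and sorted by FACS. The low and high (top ~1%) gates were set on anti-HA fluorescence for expression and streptavidin fluorescence for reagent binding.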
row,Sequence,polyreactivity (PSR sort gate)
1,QVQLVESGGGLVQAGGSLRLSCAASGRTFYRYAMGWYRQAPWKERELVAAITKRGSGTYYADSVKGRFTISRDNAKNTVYLQMNSLKPEDTAVYYCATDGYIRPSRPAPTQPTFNYWGQGSQVTVSS,high polyreactivity
2,QVQLVESGGGLVQAGGSLRLSCAASGRTFYRYVMGWYRQAPGKERELVAAITPGGSTYADSVKGRFTISRDNAKNTVYLQMNSLKPEDTAVYYCNAKVGAYLNYGYWGQGTQVTVSS,low polyreactivity
3,QVQLVESGGGLVQAGGSLRLSCAASGRTFYSNVMGWYIQAPGQERELVASISRGGNTYYADSVKGRFTISRDNAKIPFYLQMNSLKPEDTAVYYCAARQYHSRDFDYWGQGTQVTVSS,low polyreactivity
4,QVQLVESGGGLVQAGGSLRLSCAASGRTFYSYAMGWYRPAPGKERELVAAINTSGGRTHYADSVKGRFTISRDNGKNTVYLQMNSLKPEDTAVYYCAAEVFRTRTWEYYYWGQGTQVTVSS,high polyreactivity
5,QVQLVESGGGLVQAGGSLRLSCAASGRTFYSYAMGWYRQAPGKERELVAAINTSGGRTHYADSVKGRFTISRDNAKNTVYLQMNSLKPEDTAVYYCAAEVFRTRTWEYYYWGQGTQVTVSS,high polyreactivity
6,QVQLVESGGGLVQAGGSLRLSCAASGRTFYSYAMGWYRQAPGKERELVAGITWSGTSTYYADSVKGRFTISRDNAKNTVYLQMNSLKPEDTAVYYCAADSIQYTARPYDYWGQGTQVTVSS,low polyreactivity
7,QVQLVESGGGLVQAGGSLRLSCAASGRTFYSYSMGWYRQEPGQERELVALITWSGGTYYADSVKGRFTISRDNANNTVYLLMNSLKPEDTAVYYCNKYRPYGRIFHRAYGRDYWGQGTQVTVSS,high polyreactivity
8,QVQLVESGGGLVQAGGSLRLSCAASGRTFYSYTMGWYRQAPGKDRELVAAITRSGGRTYYADSVKGRFTISRDNAKNTVYLQMNSLKPDDTAVYYCAKGWVSYWRYKNEYWGQGTQVTVSS,high polyreactivity
9,QVQLVESGGGLVQAGGSLRLSCAASGRTFYSYTMGWYRQAPGKERELVAAINRGGSTYYADSVKGRFTISRDNAKNTVYLQMNSLKPEDTAVYYCNVDWKVYGAPDYRIAWKYDYWGQGTQVTVSS,low polyreactivity
10,QVQLVESGGGLVQAGGSLRLSCAASGRTFYSYVMGWYRQAPGKERELVAAINKTGGGTYYADSVKGRFTISRDNAKNTVYLQMNSLKPEDTAVYYCAAETGTGETRYYRYWDYYYWGQGTQVTVSS,high polyreactivity
11,QVQLVESGGGLVQAGGSLRLSCAASGRTFYTNALGWYRQAPGKERELVAVISRGGTTYYADSVKGRFTISRDNAKNTVYLQMNSLKPEDTAVYYCAKQRPSGDSSSQMGSWGQGTQVTVSS,low polyreactivity
12,QVQLVESGGGLVQAGGSLRLSCAASGRTFYTNAMGWYRQAPGKERELVAAITRGGSTYYADSVKGRFTIPRDNAKNTVYLQMYSLKPEDTAVYYCAAAYASSWRQRVTSEKGYYWGQGTQVTVSS,high polyreactivity
13,QVQLVESGGGLVQAGGSLRLSCAASGRTFYTNAMGWYRQAPGKERELVAVISRGGTTYYADSVKGRFTISRDNAKNTVYLQMNSLKPEDTAVYYCAKQRPSGESSSQMGSWGQGTQVTVSS,low polyreactivity
14,QVQLVESGGGLVQAGGSLRLSCAASGRTFYTYAMGWYRPAPGKERELVASISSGGNTNYADSVKGRFTISRDNAKNTVYLQMNSLKPEDTAVYYCAASYLKRRGYWGQGTQVTVSS,low polyreactivity
15,QVQLVESGGGLVQAGGSLRLSCAASGRTFYTYAMGWYRQAPGKDREFVAVISGRGARTYYADSVKGRFTISRDNAKNTVYLQMNSLKPEDTAVYYCAAVPPRKDYQHMDYWGQGTQVTVSS,low polyreactivity
16,QVQLVESGGGLVQAGGSLRLSCAASGRTFYTYAMGWYRQAPGKERELVAAITRRGGSTFYADSVKGRFTISRDNAKNTVYLQMNSLKPEDTAVYYCAARSTVGPQYGVRFNYWGQGTQVTVSS,high polyreactivity
17,QVQLVESGGGLVQAGGSLRLSCAASGRTFYTYAMGWYRQAPGNERELVATISSGGGRTYYADSVKGRFTISPDNAKKTVYLQRNSLNPEDTAVYYCAADKWENRYHAVSDTRPRDYWGQGTQVTVSS,low polyreactivity
18,QVQLVESGGGLVQAGGSLRLSCAASGRTFYVNAMGWYRQAPGKERELVARISSSGITYYADSVKGRFTISRDNAKNSVSLQMNSLKPEDTAVYYCAAGPWFYYWGLGTQVTVSS,low polyreactivity
19,QVQLVESGGGLVQAGGSLRLSCAASGRTFYVNAMGWYRQAPGKERELVARITSGGSTYYADSVKGRFTISRDKAKNTVYLQMNSVKPEDTAVYYCAADYVSLSVFSYWAWYDYWGQGTQVTVSS,low polyreactivity
20,QVQLVESGGGLVQAGGSLRLSCAASGRTFYVNDMGWYRQAPGKERELVAAISYRGGSTYYADSVKGRFTISRDNAKNTVYLQMNSLKPEDTAVYYCAAELTYRYRFYYLYSMYYWGQGTQVTVSS,low polyreactivity
21,QVQLVESGGGLVQAGGSLRLSCAASGRTFYVNTMGWYRPAPGKEREFVAAITWRDGSTYYADSVKGRFTISRDNAKNTVYPQMNSLKPEDTAVYYCAARNSHDGYYDEYYYWGQGTQVTVSS,low polyreactivity
22,QVQLVESGGGLVQAGGSLRLSCAASGRTFYVYAMGWYRQAPGKERELVAAIDFSSTSTYADSVKGRFTISRDNAKNTVYLQMNSLKPEDTAVYYCNVDPDLGGFDYWGQGTQVTVSS,low polyreactivity

row,Sequence,polyreactivity (PSR sort gate)
1,QVQLVESGGGLVQAGGSLRLSCAASGRTFYVYAMGWYRQAPGKERELVAAISQDDGGTYYADSVKGRFTISRDNAKNTVYLQMNSLKPEDTAVYYCAAKEWRYGYDYGYWGQGTQVTVSS,low polyreactivity
2,QVQLVESGGGLVQAGGSLRLSCAASGRTFYVYDMGWYRQAPGKERELVAVISSSGSTNYADSVKGRFTISRDNAKNTVYLQMNSLKPEDTAVYYCNRRRWYFFSLDYWGQGTQVTVSS,high polyreactivity
3,QVQLVESGGGLVQAGGSLRLSCAASGRTFYVYVMGWYRQAPGKEREFVAAINYGSTYYADSVKGRFTISRDNAKNTVYLQMNSLIPEDTAVYYLGQGTQVTVSS,low polyreactivity
4,QVQLVESGGGLVQAGGSLRLSCAASGRTFYWYAMGWYRQAPGKERELVAGISSGGGTYYADSVKGRFTISRDNAKNTVYLQMNSLKPEDTAVYYCAAAWENIWVWQEYIEYDYWGQGTQVTVSS,low polyreactivity
5,QVQLVESGGGLVQAGGSLRLSCAASGRTFYWYTMGWYRQAPGKERELVAAISTRGVRTYYADSVKGRFTISRDNAKNTVYLQMNSLKPEDTAVYYGNDEYNPPYYTSHDDSDYWGQGTHVTVSS,low polyreactivity
6,QVQLVESGGGLVQAGGSLRLSCAASGRTFYYNAMGWSRQAPGKEREFVARITRSGTNTYYADSVKGRFTISRDNAKNTVYLQMNSLKPEDTAVYYCARRGTSSYRRYWLDSASNMDYWGQGTQVTVSS,high polyreactivity
7,QVQLVESGGGLVQAGGSLRLSCAASGRTFYYNAMGWYRQAPGKERELVAAISWSGGRTYYADSVKGRFTISRDNAKNTVYLQMNSLKPEDTAVYYCAATGFYSSHYHLDYWGQGTQVTVSS,high polyreactivity
8,QVQLVESGGGLVQAGGSLRLSCAASGRTFYYNAMGWYRQAPGKERELVAAITSAGSTNYADSVKGRFTISRDNAKNTVYLQMNSLKPEDTAVYYCAARYFYRSAWGTFVKNDSWGQGTQVTVSS,high polyreactivity
9,QVQLVESGGGLVQAGGSLRLSCAASGRTFYYNGMGWYRQAPGKERELVAAITSGGTTSYADSVKGRFTISRDNAKNTVYLQRNSLKPEDTAVYYCNADYWAVNYDYWGQATQVTVSS,low polyreactivity
10,QVQLVESGGGLVQAGGSLRLSCAASGRTFYYNTMGWYRQAPGKERELVAAITSRGSTYADSVKGRFTISRDNAKNTVYLQMNSLKPEDTAVYYCAAVWRYGSWYSGRLYEYWGQGTQVTVSS,high polyreactivity
11,QVQLVESGGGLVQAGGSLRLSCAASGRTFYYNTMGWYRQAPGKERELVASITSGSSTYYADSVKGRFTISRDNAKNTVYLQMNSLKPEDTAVYYCAVYRRYSVKYHYGYWGQGTQVTVSS,high polyreactivity
12,QVQLVESGGGLVQAGGSLRLSCAASGRTFYYNTMGWYRQAPWKEWELVAAISWRTGSTYYADSVKGRFSISRDNAKNTVYLQMKSLKPEDTAVYYCAAVLFGYPRTIGTWYDRYYYWGQGTQVTVSS,high polyreactivity
13,QVQLVESGGGLVQAGGSLRLSCAASGRTFYYSMGWYRQAPGKERYADSVKGRFTISRDNAKNTVYLQMNSLKPEDTAVYYCSAKVPEPPSLDESDYWGQGTQVTVSS,low polyreactivity
14,QVQLVESGGGLVQAGGSLRLSCAASGRTFYYYAMGWYRQAPGKERELVAAITSGGSTKYADSVKGRFTISRDNAKNTVYLQMNSLKPEDTAVYYCAKRYFSSSRYYYWGQGTQVTVSS,high polyreactivity
15,QVQLVESGGGLVQAGGSLRLSCAASGRTFYYYAMGWYRQAPGKERELVASISRRGGSTYYADSVKGRFTISRDNAKNTVYLQMNSLKPEDTAVYYCAASHYHGYSRMDYWGQGTQVTVSS,high polyreactivity
16,QVQLVESGGGLVQAGGSLRLSCAASGRTFYYYAMGWYRQAPGKERELVASISSSGRTYYADSVKGRFTISRDNAKNTVYLQMNSLKPEDTAVYYCAKVWSSSYYRYGYWGQGTQVTVSS,high polyreactivity
17,QVQLVESGGGLVQAGGSLRLSCAASGRTFYYYAMGWYRQAPGKEREMVATISGGSSTNYADSVKWRFTISRDNAKNTVYLQMNSLKPEDTAVFYCAARWWRGGGYRPNYYKLKYDYWGQGTQVTVSS,high polyreactivity
18,QVQLVESGGGLVQAGGSLRLSCAASGRTFYYYDMGWYRQAPGKERELVAAISASGGSTYYADSVKGRFTISRDNAKNTVYLPMNSLKPDDTAVYYCAATLYHYWYSDFDYWGQGTQVTVSS,high polyreactivity
19,QVQLVESGGGLVQAGGSLRLSCAASGRTFYYYGMGWYRQAPGKERELVATISWSGGSTYYADSVKGRFTISRDNAKNTVYLQMNSLKPEDTAVYYSAADGQFLYDHIEVDYWGQATQVTVSS,low polyreactivity
20,QVQLVESGGGLVQAGGSLRLSCAASGRTFYYYTMGWYRQAPGKERELVAAIRGSGRTYYADSVKGRFTISRDNAKNTVYLQMNSLKPEDTAVYYCAAETGYTIRYDYWGQGTQVTVSS,high polyreactivity
21,QVQLVESGGGLVQAGGSLRLSCAASGRTFYYYYTMGWYRQAPGKERELVAAISRSGSTNYADSVKGRFTISRDNAKNSVYLQMNSLKPEDTAVYYCAKETNRVGRYQWGQGTQVTVSS,low polyreactivity
